According to patent publication US20140079717A1, “Compositions and Methods to Prevent Cell Transformation and Cancer Metastasis” (CORNELL UNIVERSITY, priority 2011, published 2014):

Test: In vitro liposome fractionation assay
Assay type: binding
Details: 5 μg protein, 15 minute incubation, centrifugation, SDS-PAGE
Method: FIG. 51. Recombinant tTG can associate with lipid vesicles lacking any protein content. Synthetic liposomes were prepared by extrusion and then equal amounts of this preparation were combined with either 5 μg recombinant tTG (tTG WT) or 5 μg bovine serum albumin (BSA). After a 15 minute incubation, the liposomes were pelleted by centrifugation, and the resulting supernatant (Sup) and liposome (Pellet) fractions were resolved by SDS-PAGE. The gel was then stained with Quick Blue to detect the proteins. A lane containing recombinant tTG (Rec. tTG WT) was included as a standard.
To obtain the results depicted in FIG. 51, the following procedures were used. In vitro liposome fractionation assays—Synthetic liposomes were prepared from a lipid mixture containing 35% phosphatidylethanolamine, 25% phosphatidylserine, 5% phosphatidylinositol, and 35% cholesterol re-suspended in TBSM buffer (20 mM Tris, pH 7.5, 150 mM NaCl, and 2 mM MgCl2). The lipids were extruded through an 8 micron filter, pelleted by centrifugation at 13,000 rpm for 15 minutes, and re-suspended in TBSM buffer. Equal amounts of the lipid preparation were then incubated with either recombinant wild-type tTG or BSA for 15 minutes, followed by centrifugation at 13,000 rpm for 10 minutes at room temperature. […]

B1: tTG WT: purified recombinant wild-type tissue transglutaminase (protein, UniProt P21980 2-687, looked up)
Protein-glutamine …: AEELVLERCDLELETNGRDHHTADLCREKLVVRRGQPFWLTLHFEGRNYEASVDSLTFSVVTGPAPSQEAGTKARFPLRDAVEEGDWTATVVDQQDCTLSLQLTTPANAPIGLYRLSLEASTGYQGSSFVLGHFILLFNAWCPADAVYLDSEEERQEYVLTQQGFIYQGSAKFIKNIPWNFGQFEDGILDICLILLDVNPKFLKNAGRDCSRRSSPVYVGRVVSGMVNCNDDQGVLLGRWDNNYGDGVSPMSWIGSVDILRRWKNHGCQRVKYGQCWVFAAVACTVLRCLGIPTRVVTNYNSAHDQNSNLLIEYFRNEFGEIQGDKSEMIWNFHCWVESWMTRPDLQPGYEGWQALDPTPQEKSEGTYCCGPVPVRAIKEGDLSTKYDAPFVFAEVNADVVDWIQQDDGSVHKSINRSLIVGLKISTKSVGRDEREDITHTYKYPEGSSEEREAFTRANHLNKLAEKEETGMAMRIRVGQSMNMGSDFDVFAHITNNTAEEYVCRLLLCARTVSYNGILGPECGTKYLLNLNLEPFSEKSVPLCILYEKYRDCLTESNLIKVRALLVEPVINSYLLAERDLYLENPEIKIRILGEPKQKRKLVAEVSLQNPLPVALEGCTFTVEGAGLTEEQKTVEIPDPVEAGEEVKVRMDLLPLHMGLHKLVVNFESDKLKAVKGFRNVIIGPA
Question: Which “protein pelleted with synthetic liposomes” value does the source give for B1 here?
Answer: nearly all
